Assay results published in publication PMC10320017.

Target: SARS-CoV-1 S/native spike ectodomain (with C-terminal foldon and His tag) (SARS coronavirus Tor2 (SARS-CoV-1))
Assay: negative-stain EM

For “SARS-CoV-1 S/native spike ectodomain (with C-terminal foldon and His tag) (domain or fragment)”, which stoichiometry N is on record?
The stoichiometry N was 3.
